Measurements reported in PMC6291932.

Target: recombinant zika virus (ZIKV) non-structural 1 (NS1) protein (Zika virus)
Assay: SEC; Superdex 200 10/300, elution in 50 mM CAPS pH 11.0; supernatants of NS1 inclusion bodies subjected to 2.4 kbar/0.4 kbar at pH 10.0 to 12.5, with or without Arg

recombinant zika virus (ZIKV) non-structural 1 (NS1) protein (natural protein)
stoichiometry N: 2
